This series is described as follows: label from the status in PepcDB records.

As to “MMSNLIILPMLLPFVCALILVFTKNKNRISKILSITTMIVNTMISIALLIYVVNHKPITLDFGGWKAPFGIQFLGDSLSLLMVSVSSFVVTLIMAYGFGRGEKRVNRFHLPTFILLLTVGVIGSFLTSDLFNLYVMFEIMLLASFVLVTLGQSVEQLRAAIVYVVLNILGSWLLLLGIGMLYKTVGTLNFSHLAMRLNHMENNQTITMISLVFLVAFSSKAALVIFMWLPKAYAVLNTELAALFAALMTKVGAYALIRFFTLLFDHHPSVTHTLLVFMACITMIIGAFGVIAYKDIKKIAAYQVILSIGFIILGLGSHTISGVNGAIFYLANDIIVKTLLFFVIGSLVYMSGYRNYQYLSGLAKREPFFGVAFVVVIFAIGGVPPFSGFPGKVLIFQGAITNGNYIGLALMIVTSLIAMYSLFRVMFIMYFGDADGEQVQFRPLPIYRKGLLSVLVVVVLAMGIAAPVVLKVTEDATNLNMKEDVFQKNVNTHLKEVNHK”, the protein production result is listed as “failed”.
Consider “MMTDEARAKLAAIPMLAGYTGPLERLGGLTNLVFRAGDLCLRIPGKGTEEYINRANEAVAAREAAKAGVSPEVLHVDPATGVMVTRYIAGAQTMSPEKFKTRPGSPARAGEAFRKLHGSGAVFPFRFELFAMIDDYLKVLSTKNVTLPAGYHDVVREAGGVRSALAAHPLPLAACHCDPLCENFLDTGERMWIVDWEYSGMNDPLWDLGDLSVEGKFNANQDEELMRAYFGGEARPAERGRVVIYKAMCDLLWTLWGLIQLANDNPVDDFRAYADGRFARCKALMETPEFSRHLAAVRMG”, for which the protein production entry is listed as “not failed”.
With “MMTKFWNDRYKSDEYFYGEEPNTFIKEQAFRLANHNKVIAFAEGEGRNAVFLARQGNEVTAIDYSEDGLEKTKKLAEKHNVNVHTKKVDLLADSLPENEYDAAIMVFGHFHDDYKKMILGKMIQTIKPGGLIMFEVYSKKQINYGTGGPKDVDMLYDPIDILTWCEEHKVIHFFNGEQERIEGKGHTGLADVIQVVIRK” the entry was “failed”; with “MMTKYGVVGTGYFGAELARFMSKVEGAKITAIYDPVNAAPIAKELNCVATATMEALCSHPDVDCVIIASPNYLHKAPVIAAAKAGKHVFCEKPIALNYQDCKDMVDACKEAGVTFMAGHVMNFFHGVRHAKALIKAGEIGEVTQVHTKRNGFEDVQDEISWKKIRAKSGGHLYHHIHELDCTLFIMDETPSLVSMAAGNVAHKGEKFGDEDDVVLITLEFESGRFATLQWGSSFHYPEHYVLIEGTTGAILIDMQNTAGYLIKAGKKTHFLVHESQAEDDDRRNGNISSEMDGAIAYGKPGKRTPMWLSSIMKLEMQYLHDVINGLEPGEEFAKLLTGEAATNAIATADAATLSSNEGRKVKLTEILGLEHHHHHH”, “not failed”.
With “MMTLNAFIEKLSTQPELIEFTETMAVIESHYEFTPTEFANGNTVNLADQNNGSCKIFAFALLNQLSVDQTLACFGQYYRQDVLENPQGDDHQNIRNFMVTGWAGVQFKAQALQAK” the entry was “failed”.
With “MMTLSDLPSDLAEEVLSKIPVTSLRGVRATCKKWNTLSKDRSFTRKHLAQAKAAAAREFMVVMVMDFQVYLMGINLHKDVDATINGQGKLISLDDSNQVDISYVYHCDSLVLCIPKDCARLVVWNPYWGQTLWFKPTSLRHFPHWYMYAIGYQMRRGNRDAKTSRWLLTCRPTTKTITKNTIDHL” the entry was “failed”; with “MMTPEQIATVMTGKVEAAGKGRHEAVLASPMIQNHAPFLHLADDGALICAWFGGTLEGKSDISIFTSVLAAGSNKWGEPQRLSFDPDHSEQNPVLFAAPGNTLLLFHTSQPSGNQDECRIRMAEVSRDASDPTRLTAGEGLYLDLPRGCFVRAPLTVRADGAWLLPIFRCIQRPGQKWNGSHDRAAVGISEDCGKSWRLEDIDQSTGCVHMSPLVIGDEKLAAVFRRRQADFVYRTESADGGRTWSAPQATDVPNNNSSIAAIRLNDGRIAMICNPTNAAMSSDRRASLYDELGEDDDRPDANPDGGCVPIWGVPRAPVTVCISEDGAKSFPQRITIEDGPGTCLSNNSIDGHNKEMSYPWLLEGADGSLHIAYTYYRRAIKYVRLAPGWARAADGR”, “failed”; with “MMTRNKEFPMQMQSVTPARLVTTGLAFGESPRWHGGRLWVCNWGTSEIIATDAHGNREIMLIVPAVLPYSIDWLQDGRLLVVSGREGLLLRQEVDGKLVTHADLRGLSKSPWNEIVVDGRGNIYVNGGGPAPAAGEYFGPGTVVLITADGAVRQVADDIAFANGMAVTPDNKTLILAESHGNRLTAFDIAADGSLSNRRAWADLDGYPDGICLDAEGAVWYADVPNKHCVRVREGGEVLQTVTVDRGCFACMLGGADRRTLFIVAAEWRGFEHMVGDARTGQVLSVDAPAPGVGWP”, “failed”.
For the sequence “MMTTLQILFWLSLFLVFYTHLGYGILLYMLVKLKELFVKPVRRQLPPDKRLPDVTLFITAFNEEEVVDEKMRNCLGLDYPADKLHIVWTTDGSNDSTNQRLEDWPQATVHFQPLRQGKTAAMTRGMMLVDTPLVVFTDANTMLNREAIREIVRAFEDPKVGCVAGEKRIAVQEKDGAAAGGEGIYWKYESTLKALDARLYSAVGAAGELFAVRRELFTVMEPDTLLDDFILSLRIAMQGYKIAYCTQAYAIESGSADIREEQKRKVRIAAGGLQSIWRLRELLNPFRYGVLTFQYVSHRVLRWSLAPVLLFALLPLNIAILLAGGSPVCYGTILALQLLFYIMGGWGYYLSTRQVKNKLLFIPYYFLFMNINVMKGVNYLRKKKGTGAWEKAKRTKTESLNQ”, the protein production entry was “failed”.
For “MMTTRNGSLRFFNHTFSFYDEATCVVREEELQRELMPRHVSFILDGNRRWAKRDGLTTAQGHEAGTKRIIEIAERIGEETRKEVRVSVIGNKTKIPESLLKEIHEIEEATKATRISISSWQ”, the protein production entry is “failed”.
With “MMVDTGVDHRAVSSHDGPDAGRRVFGAADPRFACVVRAFASMFPGRRFGGGALAVYLDGQPVVDVWKGWADRAGWVPWSADSAPMVFSATKGMTATVIHRLADRGLIDYEAPVAEYWPAFGANGKATLTVRDVMRHQAGLSGLRGATQQDLLDHVVMEERLAAAVPGRLLGKSAYHALTFGWLMSGLARAVTGKDMRLLFREELAEPLDTDGLHLGRPPADAPTRVAEIIMPQDIAANAVLTCAMRRLAHRFSGGFRSMYFPGAIAAVQGEAPLLDAEIPAANGVATARALARMYGAIANGGEIDGIRFLSRELVTGLTRNRRQVLPDRNLLVPLNFHLGYHGMPIGNVMPGFGHVGLGGSIGWTDPETGVAFALVHNRLLSPLVMTDHAGFVGIYHLIRQAAAQARKRGYQPVTPFGAPYSEPGAAAG” the entry was “failed”; with “MMVKDGLRYWPLGMAFLLGVGLQPVRAAEMFLPPTGLAQEELIALTEVDSLAQARLPQSEGSAIDLLPLPPQPTAAVDPPREAPASLPTTIEVKGDSPAPPVEPSPPTTDNSPGVPTTPQLAAEQAVQEARLALLREGDRYWQLGDLTTARTYYQKAKADLNVPPPHVIPPAVLEISQLPPAAQVYWREVQSGSQLYTAQAVPLQLLVEQFPEFIPAQVRFGEFLAQQGSLKEACAHLEKAASLYPDQPDIQRGLITLYDRQQQWLEAALAAQRFALLNPDHPATPEFEQLAAERMQRFRRRLQGQLREGMVVGALTGLVGVALTGNPLLSLDSIQMMTLMMQGESALGRSAARNISRQVKLLEDAAVQTYVNEVGQRLAKVAGRNEFAYEFFVIKDNDLNAFALPGGKIFVNSGAILKASTEAELAGLLAHEIAHTVLSHGFRLMTQGTATANLTRLLPAGGYVTGIVVTSYSREMEREADILGTQILARAGYAADGLLNLMHTLKKEYRNQEPPLPWFSTHPPTNERIRYIRGLMRDRGYTPFAFEGLERHQRIQAHLRTLVDPPNAPKSKRETAKTPQ”, “failed”.
With “MNAIGLVGFAFVGAAKAIEERYDVFGVTVVGVMTALGGGTTRDLLLNRVPNSLQSPGEVALSLLGVTAAVLFVHFLDDGHQHPVVLTADAIGLAAFTTTGALLGQQAGLPVFAVVALATVNAAGGGAISDLLLGRTPFILREDFYASCAVIGGLAFWALAQIGVSVSVASAGCALAVLLARGLGIGRGWSLPTVQAWERRDAQ” the entry was “failed”; with “MNAIREGVRALCAEFDAAYWRRIDEQRGFPEAFVKALTDAGWLSAMIPEEYGGSGLGLAEASVILEEVNRCGGNSGTVHGQMYNMFTLLRNGSEAQKRFYLPKLASGELRLQSMGVTEPTTGTDTTKIKTTAVRKGDRYVINGQKVWISRIQHSDLMILLARTTPLAEVKRKSEGMSIFLVDLREAIGKGLTVQPIANMVNHETNELFFDNLEIPADSLIGEEGKGFRYILDGLNAERTLIAAECIGDGRWFIDKASHYARDRVVFGRPIGQNQGVQFPIAEAHIEVEAADLMRWRACQEYDAGLNAGASANMAKYLAAKASWEAANACLQTHGGFGFACEYDVERKFRETRLYQVAPISTNLILSYVAEHLLELPRSF”, “failed”; with “MNALGTKARVVGTGVLVLGLLSGCTTAAPSPSSPTPTQATPTQAASSNAGPGPASSAAVPAQQSAEAKLSPEAQIETDRLLILAAKANDAAKVRELIAAGGNVNAKDEIQDSAFLYAGAEGFNEVLQLTLAAGADVRSTNRYGGTALIPASEHGHTETVRILIAAGVPVDHVNNLGWTAMQEAILPNNGGPNQQDVVRQLLAAGATPDIRDPQGRTALQNAERLGFTEIAALIRNR”, “failed”.
With “MNALVLYFDGKCPFCAAEMRRLSEWDTQHQLAFVDIAQEGFDCSSLNVDLAALNRELHGRTSDGRLLVGIDCMIAAYTLAGHGWLVLPLRVPGLRRVLANLYRAFAGNRYTLSRWLGYGTATACDGDSCGTGNPFLSGKELTDAAEDRPARRDSRQLAVRWMYAAAIAHLLVGAAMPWAADATLFGTYHRIVEQSFWSGAAPAQARAQQVWWIALFGATLQCSAIWMLALVHLGNRTRHRMAWGWLLVGLLVWAPQDLLISLQAHVWPHVLVDAVALLTMIPPLLYLWRKDAA” the entry was “failed”; with “MNANQFLKAVSQLQGWRECAFLLALAERSFPNYALFADAVGLKTGGKMRQLLDLAWDMLQKDVADAAIPQLLSKLETLCPNVDEYDAYGVYPAFDFCQLLEQALLNRLNPNKHRATEASQLATRTVMDFVEMSEGEGMDENELVRVFEHHPLLKDDKLFQRDTVMALYYYRTPKEAFLAELRAGAANDGVSNLGISLEG”, “not failed”; with “MNAPSLKEENALTITRVFDAPANLVFKVWTTPEHLARWWGPKGFTVPAITTDFREGGAWRGCIRSPEGQDYWAHGIYREIVAPSRIVLSFVWEEEGAIDTLITVTLEDVAGGTRLTFHQAPFTSAESRDSHAEGWSECMDRLVSYVAARKEEVQ”, “failed”.
With “MNARHARYPFLGDARDAVEEAGVDLARVVTEDDAVVERARERVVSALTDGTIGEPAATVSTRVEVLSYPVARVLVSIVDESVLVRKYATAEADAAYDRFTADESTDTDLKSVSDTTRVSRDTLLSEFDLRAHVHATPDAHTVDVPTYLLLASSLRDDDWRLVNRALDDGRVPVTDAELDTLIREAIRERVADGLPLSVPDQIADALDEPVAAIQDALADLDLTREIDTVVPELFPPCMKHLLDQVQRGDHLPHHARFAITSFLSNVGLSTDEIVDIYEVNPGFGEEMTRYQTDHIQGDSSPTEYTAPSCATMKAYGNCVNPDDLCDAINHPLSYYEVKLDDGDDDDLADWRDREDDDSPD”, the protein production result is given as “failed”.
With “MNARSGDNVVLAILLSLLALVLFDMMGLIIKYLSPRYGAAELSAYRNFFGVFPSVIALWSSPGWHRAGRPWRIRQWRLGLMRGVYVTFAQFLFYYSLGKLAFATASTITYANAVFMTALAVPLLGERVGLMRWAAVLLGFAGVLLVMKPGSDSFTPDALAPLGAAFLYALTGVSARQMDSAVPSALINLYSVVAALVGALALALLSGGFTPLAQWSDLGWIAAMGGFGGTAVLCLVASYRMTEQSNLAPFSYFGIPIAFVAGWLVFDETPWADLFPGAFFIAGGGLMIVWRERIRSRAGRRISN” the entry was “failed”.
